Test results taken from paper PMC1479692, “The PLAC1-homology region of the ZP domain is sufficient for protein polymerisation” (BMC Biochemistry, 2006).

Target: the molecule itself
Test: SEC; purified MBP-ZP-N-6his on Sephacryl S-300 HR (FPLC) and Bio-Sil SEC-250-5 (HPLC) columns, ~300 kDa Mr cut-off; buffer F (10 mM Na-HEPES pH 8.0, 100 mM NaCl, 1 mM maltose, 1 mM NaN3); also with 10 mM DTT, and after pre-incubation with 10 mM EDTA

B1: MBP-ZP-N-6his fusion protein (PLAC1-homology region, ZP-N, of the ZP domain of mouse ZP3) (domain or fragment, UniProt P10761 42-143, looked up)
chain: VKVECLEAELVVTVSRDLFGTGKLVQPGDLTLGSEGCQPRVSVDTDVVRFNAQLHECSSRVQMTKDALVYSTFLLHDPRPVSGLSILRTNRVEVPIECRYPR
modifications: intramolecular disulfides Cys 46-Cys 139 and Cys 78-Cys 98 (ZP3 numbering)
notes: mouse ZP3 (zona pellucida sperm receptor), aa 42-143, the 102-amino acid ZP-N fragment; The assay buffer contained 1 mM maltose; also called recombinant ZP-N; ZP-N fragment; source: E. coli Origami B (DE3) (trxB gor), co-expressing ΔSSdsbC and TrxA(G33P, P34Y); purified (Ni2+ HiTrap Chelating HP, amylose resin, Mono Q); not shown: His6 (LEH6), C-terminal, kept
B1: binds.
